For this test, the target named is Strep-tag II-tagged VgrG spike protein of EAEC T6SS-1 (enteroaggregative Escherichia coli (EAEC) 17-2). The experiment in a line: cryo-EM structure; single particle cryo-EM of the co-produced, double-affinity and SEC purified PAAR^FL-^SVgrG-Tle1^H complex; AlphaFold2 model plus PDB 6SJL docked into the maps.

On to “Strep-tag II-tagged VgrG spike protein of EAEC T6SS-1 (natural protein)”, for which the stoichiometry N (in general, the number of molecules, sites or subunits per partner or assembly) stood at 3.
